Molecular target: human EpCAM (human) (UniProt P16422)
Experiment: binding affinity, method not stated

Chain of UniProt P16422 (P16422 24-265 limits assumed): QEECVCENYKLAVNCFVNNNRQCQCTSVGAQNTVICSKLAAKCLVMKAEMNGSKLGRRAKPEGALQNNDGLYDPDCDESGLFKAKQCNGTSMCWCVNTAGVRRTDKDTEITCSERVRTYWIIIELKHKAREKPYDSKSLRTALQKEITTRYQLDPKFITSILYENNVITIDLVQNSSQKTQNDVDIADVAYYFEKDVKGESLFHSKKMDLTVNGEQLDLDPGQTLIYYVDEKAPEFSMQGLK

B1: hVIB-13 (VHH)
VHH: QVQLVESGGGLVQPGGSLTLSCAASGTGSIFSINLMGWYRQAPGKQRELVARITSGDSTVYADSVKGRFTISRDNSKNTLYLQMNSLRPEDTAVYYCNLLLRSSPGATTPYWGQGTLVTVSS
Kd: 2.8 nM

Source: patent US20230414752A1
